Substrate in the data set “purified protein”: Nc1ncnc2c1ncn2[C@@H]1O[C@H](COP(=O)(O)OP(=O)(O)OP(=O)(O)O)[C@@H](O)[C@H]1O
The data set can be described thus: purified protein. In kind it is biochemical, Mycolicibacterium smegmatis. To be noted: 50 mM Tris-HCl pH 8.0, 150 mM KCl, 2 mM MgCl2, 2 mM DTT, 30 °C, 200 nM protein.

Data set [1] deals with the molecule itself. Put plainly: SEC-MALS; Superdex 200 Increase 10/300 GL, 5 mg/mL protein injected, 20 mM Tris-HCl pH 7.5, 300 mM NaCl, 0.5 mM TCEP, flow 0.5 mL/min; DAWN Heleos II detector. Background: Size exclusion chromatography separates by hydrodynamic size, large species first.

B1: MSMEG_0748 (Mycolicibacterium smegmatis MC2 155) (protein)
chain: MRMAAEPGAAVTGFGGVDDVVRRFDAHDYLLDEGTATAIYLAVSLGRPLLLEGEPGVGKTTAAKTLAAVLGTPLIRLQCYEGLTASEALYDWNYQRQLLSIRLAEARGGEHLDEAALYTESYLVDRPILQCVRHRGPSSPVLLVDEIDRADDEFEALLLEFLGEAAVTVPELGTFVAERPPVVVLTSNRSRDLHDALRRRCLYHWIEYPQRAQAVAIVRRTVPGATDALIDSAVQFVSAARELDLDKPPGVAETIDWVAALVALRVGDLVDPAALGTLGALAKTPDDSGLMRDALLDLTN
notes: full length, N-terminal His-tag cut off by rTEV protease, expressed in E. coli BL21(DE3)
By Km is commonly meant the substrate concentration at which the rate is half of its maximum. Turning to B1, in the data set “purified protein”, the Km stood at 0.6951 µM and the kcat was 0.0251 S^−1.

B2: MSMEG_0748 (MoxR-type AAA+ ATPase from Mycobacterium smegmatis mc2 155), recombinant, tag-cleaved (enzyme, UniProt A0QQG6 1-300, looked up)
chain: MRMAAEPGAAVTGFGGVDDVVRRFDAHDYLLDEGTATAIYLAVSLGRPLLLEGEPGVGKTTAAKTLAAVLGTPLIRLQCYEGLTASEALYDWNYQRQLLSIRLAEARGGEHLDEAALYTESYLVDRPILQCVRHRGPSSPVLLVDEIDRADDEFEALLLEFLGEAAVTVPELGTFVAERPPVVVLTSNRSRDLHDALRRRCLYHWIEYPQRAQAVAIVRRTVPGATDALIDSAVQFVSAARELDLDKPPGVAETIDWVAALVALRVGDLVDPAALGTLGALAKTPDDSGLMRDALLDLTN
notes: MSMEG_0748, MoxR-type AAA+ ATPase, Mycobacterium smegmatis mc2 155, UniProt A0QQG6; amplified from genomic DNA into pProEX-HTa; full-length protein of about 32.7 kDa after removal of the His tag by rTEV protease; also called wild-type MSMEG_0748; MoxR ATPase; source: E. coli BL21(DE3), purified (Ni-NTA, TEV cleavage, second Ni-NTA, SEC on Superdex 200); not shown: His-tag, N-terminal, cleaved
One may read the stoichiometry N as a count of units in the complex or per binding partner. For the protein B2, the “stoichiometry N” value in data set [1] was found to be 6.

B3: MSMEG_0748 (Mycolicibacterium smegmatis MC2 155; E146Q) (protein)
chain: MRMAAEPGAAVTGFGGVDDVVRRFDAHDYLLDEGTATAIYLAVSLGRPLLLEGEPGVGKTTAAKTLAAVLGTPLIRLQCYEGLTASEALYDWNYQRQLLSIRLAEARGGEHLDEAALYTESYLVDRPILQCVRHRGPSSPVLLVDQIDRADDEFEALLLEFLGEAAVTVPELGTFVAERPPVVVLTSNRSRDLHDALRRRCLYHWIEYPQRAQAVAIVRRTVPGATDALIDSAVQFVSAARELDLDKPPGVAETIDWVAALVALRVGDLVDPAALGTLGALAKTPDDSGLMRDALLDLTN
notes: as for B1
With B3, in “purified protein”, the Michaelis constant (Km) stood at 0.9024 µM and the kcat turned out to be 0.0189 S^−1.

Values taken from PMC12657314, “Structural modeling and biochemical characterization of MSMEG_0748, a MoxR ATPase from Mycobacterium smegmatis” (Computational and Structural Biotechnology Journal, 2025).
